Assays:
Experiment in all cases: cell-based or functional assay
[1] = biological target: EGFR on human cell lines (A431, T98G, LN18, U87, U87high, HRCE) (human) (UniProt P00533)
[2] = biological target: Truncated EGFR (human EGFR containing only extracellular and transmembrane domains) (human) (UniProt P00533)
[3] = biological target: truncated CD19 on EL4 cells (UniProt P15391)
UniProt P15391, sequence (P15391 20-333 limits assumed): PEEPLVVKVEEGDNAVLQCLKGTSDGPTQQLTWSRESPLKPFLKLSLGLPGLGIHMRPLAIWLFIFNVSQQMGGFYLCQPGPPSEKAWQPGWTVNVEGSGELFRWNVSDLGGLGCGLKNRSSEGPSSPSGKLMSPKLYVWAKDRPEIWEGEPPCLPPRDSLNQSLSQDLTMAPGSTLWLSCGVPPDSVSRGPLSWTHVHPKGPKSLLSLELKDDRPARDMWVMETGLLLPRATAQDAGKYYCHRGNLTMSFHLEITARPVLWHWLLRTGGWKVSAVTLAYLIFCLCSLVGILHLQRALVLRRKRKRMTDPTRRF

Row | Substance | percent CAR remaining on T-cell surface after 12 hours of co-culture with U87 [1] [%] | percent CAR remaining on T-cell surface after 12 hours of co-culture with U87high [1] [%] | percent CAR remaining on T-cell surface after 48 hours of co-culture with U87 [1] [%] | percent CAR remaining on T-cell surface after 48 hours of co-culture with U87high [1] [%] | reduction in U87high cell number relative to controls grown without CAR+ T cells [1] [%] | specific lysis of HRCE, 10:1 E:T ratio [1] [%] | numeric expansion of CAR+ T cells over 28 days of co-culture with tEGFR+ K562 aAPC [2] [fold] | proportion of tEGFR+ EL4 in 1:1 co-culture with CAR+ T cells after 5 days [2] [%] | specific lysis of tEGFR+ EL4 [2] [%] | specific lysis of CD19+ EL4 (non-specific target) [3] [%] | reduction in U87 cell number relative to controls grown without CAR+ T cells [1] [%] | specific lysis of HRCE, DNA-modified T cells, 10:1 E:T ratio, 24 hrs [1] [%] | specific lysis of HRCE, DNA-modified T cells, 10:1 E:T ratio, 120 hrs [1] [%] | specific lysis of HRCE, RNA-modified T cells, 10:1 E:T ratio, 24 hrs [1] [%] | specific lysis of HRCE, RNA-modified T cells, 10:1 E:T ratio, 120 hrs [1] [%] | production of IFN-γ in response to tEGFR+ EL4, DNA-modified T cells, 24 hour time point [2] [%] | production of IFN-γ in response to tEGFR+ EL4, DNA-modified T cells, 120 hour time point [2] [%] | production of IFN-γ in response to tEGFR+ EL4, RNA-modified T cells, 24 hours after RNA transfer [2] [%] | production of IFN-γ in response to tEGFR+ EL4, RNA-modified T cells, 120 hours after RNA transfer [2] [%]
1 | Nimotuzumab-derived CAR | 126 | 124 | 94.4 | 95.7 | 80 | 30.4 | 1000 | 80 | 21.2 | 12.3 |  |  |  |  |  |  |  |  | 
2 | Cetuximab-derived CAR | 68 | 37.4 | 95.5 | 42.6 | 80 | 81.1 | 1000 | < 10 | 57.5 | 17.3 | 40 | 45.5 | 51.6 | 39.5 | 19.8 | 40.3 | 48.6 | 14.2 | 1.1
